Source: article PMC10397247
Where two headings read alike, the source gives them in different places. Each block holds one binder with its values, some of them ahead of it.

Assays:
Experiment in all cases: two-hybrid library CCmax;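 also: natural log of median RNA to DNA barcode read ratio; higher means stronger binding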
4H384-AA = biological target: T1, 4H384-AA; conditions: mean of both orientations
T1 chain: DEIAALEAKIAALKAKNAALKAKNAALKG

4H982-AA = biological target: T2, 4H982-AA; conditions: mean of both orientations
T2 chain: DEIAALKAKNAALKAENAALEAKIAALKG

Q3-AA = biological target: T3, Q3-AA; conditions: mean of both orientations
T3 chain: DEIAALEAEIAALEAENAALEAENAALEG

4H3865-AA = biological target: T4, 4H3865-AA; conditions: mean of both orientations
T4 chain: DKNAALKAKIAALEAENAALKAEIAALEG

Q8-AA = biological target: T5, Q8-AA; conditions: mean of both orientations
T5 chain: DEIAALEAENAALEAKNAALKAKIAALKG

4H697-AA = biological target: T6, 4H697-AA; conditions: mean of both orientations
T6 chain: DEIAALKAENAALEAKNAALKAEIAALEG

4H3718-AA = biological target: T7, 4H3718-AA
T7 chain: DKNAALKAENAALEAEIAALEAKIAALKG

Q7-AA = biological target: T8, Q7-AA; conditions: mean of both orientations
T8 chain: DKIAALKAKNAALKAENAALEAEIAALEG

4H993-AA = biological target: T9, 4H993-AA; conditions: mean of both orientations
T9 chain: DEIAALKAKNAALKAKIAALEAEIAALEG

4H3627-AA = biological target: T10, 4H3627-AA
T10 chain: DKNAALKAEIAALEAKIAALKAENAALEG

4H3655-AA = biological target: T11, 4H3655-AA; conditions: mean of both orientations
T11 chain: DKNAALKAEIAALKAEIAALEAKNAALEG

4H566-AA = biological target: T12, 4H566-AA; conditions: mean of both orientations
T12 chain: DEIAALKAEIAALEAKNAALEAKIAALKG

4H454-AA = biological target: T13, 4H454-AA; conditions: mean of both orientations
T13 chain: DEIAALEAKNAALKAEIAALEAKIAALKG

4H794-AA = biological target: T14, 4H794-AA; conditions: mean of both orientations
T14 chain: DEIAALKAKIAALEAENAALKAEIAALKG

4H429-AA = biological target: T15, 4H429-AA; conditions: mean of both orientations
T15 chain: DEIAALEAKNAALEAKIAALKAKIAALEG

4H48-AA = biological target: T16, 4H48-AA
T16 chain: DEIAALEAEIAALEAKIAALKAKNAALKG

4H678-AA = biological target: T17, 4H678-AA; conditions: mean of both orientations
T17 chain: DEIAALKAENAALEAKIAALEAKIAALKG

4H780-AA = biological target: T18, 4H780-AA; conditions: mean of both orientations
T18 chain: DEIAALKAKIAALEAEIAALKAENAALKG

4H906-AA = biological target: T19, 4H906-AA; conditions: mean of both orientations
T19 chain: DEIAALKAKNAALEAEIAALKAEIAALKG

4H3844-AA = biological target: T20, 4H3844-AA; conditions: mean of both orientations
T20 chain: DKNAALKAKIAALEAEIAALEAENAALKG

4H605-AA = biological target: T21, 4H605-AA; conditions: mean of both orientations
T21 chain: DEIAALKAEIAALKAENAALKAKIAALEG

4H881-AA = biological target: T22, 4H881-AA; conditions: mean of both orientations
T22 chain: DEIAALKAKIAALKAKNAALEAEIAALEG

4H3921-AA = biological target: T23, 4H3921-AA; conditions: mean of both orientations
T23 chain: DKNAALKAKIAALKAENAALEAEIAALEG

4H717-AA = biological target: T24, 4H717-AA; conditions: mean of both orientations
T24 chain: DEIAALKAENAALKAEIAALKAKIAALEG

4H3112-AA = biological target: T25, 4H3112-AA; conditions: mean of both orientations
T25 chain: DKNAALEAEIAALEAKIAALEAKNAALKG

4H2944-AA = biological target: T26, 4H2944-AA
T26 chain: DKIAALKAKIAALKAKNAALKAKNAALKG

4H335-AA = biological target: T27, 4H335-AA; conditions: mean of both orientations
T27 chain: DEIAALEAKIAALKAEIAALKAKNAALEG

4H317-AA = biological target: T28, 4H317-AA; conditions: mean of both orientations
T28 chain: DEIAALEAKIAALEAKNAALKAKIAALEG

4H3427-AA = biological target: T29, 4H3427-AA; conditions: mean of both orientations
T29 chain: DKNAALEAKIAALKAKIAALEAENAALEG

4H2949-AA = biological target: T30, 4H2949-AA; conditions: mean of both orientations
T30 chain: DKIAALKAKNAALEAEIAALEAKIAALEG

4H3343-AA = biological target: T31, 4H3343-AA; conditions: mean of both orientations
T31 chain: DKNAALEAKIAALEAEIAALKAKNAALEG

4H342-AA = biological target: T32, 4H342-AA; conditions: mean of both orientations
T32 chain: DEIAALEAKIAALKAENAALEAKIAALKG

4H3606-AA = biological target: T33, 4H3606-AA; conditions: mean of both orientations
T33 chain: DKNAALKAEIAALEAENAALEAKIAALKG

4H340-AA = biological target: T34, 4H340-AA; conditions: mean of both orientations
T34 chain: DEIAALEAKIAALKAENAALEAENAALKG

4H1594-AA = biological target: T35, 4H1594-AA; conditions: mean of both orientations
T35 chain: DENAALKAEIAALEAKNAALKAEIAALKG

4H1845-AA = biological target: T36, 4H1845-AA; conditions: mean of both orientations
T36 chain: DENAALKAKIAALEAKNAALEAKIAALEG

4H1629-AA = biological target: T37, 4H1629-AA; conditions: mean of both orientations
T37 chain: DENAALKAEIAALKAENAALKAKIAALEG

4H2620-AA = biological target: T38, 4H2620-AA; conditions: mean of both orientations
T38 chain: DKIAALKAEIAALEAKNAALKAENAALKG

4H2907-AA = biological target: T39, 4H2907-AA; conditions: mean of both orientations
T39 chain: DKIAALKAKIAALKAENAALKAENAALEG

4H3588-AA = biological target: T40, 4H3588-AA; conditions: mean of both orientations
T40 chain: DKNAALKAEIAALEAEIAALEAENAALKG

4H3162-AA = biological target: T41, 4H3162-AA; conditions: mean of both orientations
T41 chain: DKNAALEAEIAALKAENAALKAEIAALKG

4H3378-AA = biological target: T42, 4H3378-AA; conditions: mean of both orientations
T42 chain: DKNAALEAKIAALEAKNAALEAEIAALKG

4H3697-AA = biological target: T43, 4H3697-AA; conditions: mean of both orientations
T43 chain: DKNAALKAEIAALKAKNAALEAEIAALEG

4H2198-AA = biological target: T44, 4H2198-AA; conditions: mean of both orientations
T44 chain: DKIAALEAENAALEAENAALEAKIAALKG

4H3056-AA = biological target: T45, 4H3056-AA; conditions: mean of both orientations
T45 chain: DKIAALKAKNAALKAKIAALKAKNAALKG

4H2553-AA = biological target: T46, 4H2553-AA; conditions: mean of both orientations
T46 chain: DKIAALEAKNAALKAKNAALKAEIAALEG

4H2648-AA = biological target: T47, 4H2648-AA; conditions: mean of both orientations
T47 chain: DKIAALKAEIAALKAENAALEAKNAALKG

4H2611-AA = biological target: T48, 4H2611-AA
T48 chain: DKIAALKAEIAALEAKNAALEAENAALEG

4H1513-AA = biological target: T49, 4H1513-AA
T49 chain: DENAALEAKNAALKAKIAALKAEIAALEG

4H3631-AA = biological target: T50, 4H3631-AA; conditions: mean of both orientations
T50 chain: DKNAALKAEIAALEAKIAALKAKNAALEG

4H3413-AA = biological target: T51, 4H3413-AA; conditions: mean of both orientations
T51 chain: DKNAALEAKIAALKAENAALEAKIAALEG

4H3133-AA = biological target: T52, 4H3133-AA; conditions: mean of both orientations
T52 chain: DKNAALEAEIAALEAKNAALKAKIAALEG

4H1874-AA = biological target: T53, 4H1874-AA; conditions: mean of both orientations
T53 chain: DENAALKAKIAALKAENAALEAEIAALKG

4H32-AA = biological target: T54, 4H32-AA; conditions: mean of both orientations
T54 chain: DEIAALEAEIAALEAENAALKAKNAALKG

interaction score (4H384-AA): 0.145
interaction score (4H982-AA): -1.15
interaction score (Q3-AA): -1.46
interaction score (4H3865-AA): -1.49
interaction score (Q8-AA): 1.05
interaction score (4H697-AA): -0.465
interaction score (4H3718-AA): -0.586
interaction score (Q7-AA): -0.973
Binder: DKNAALKAENAALEAEIAALEAKIAALKG [4H3718-AA]

interaction score (4H993-AA): -1.08
interaction score (4H3627-AA): 0.53
interaction score (4H3655-AA): -0.0982
interaction score (4H566-AA): -0.771
interaction score (4H454-AA): 0.554
interaction score (4H794-AA): -1.93
interaction score (4H429-AA): -1.09
interaction score (4H48-AA; mean of both orientations): -0.478
interaction score (4H678-AA): -1.31
interaction score (4H780-AA): -1
interaction score (4H906-AA): -1.34
interaction score (4H3844-AA): 1.03
interaction score (Q3-AA): -1.24
interaction score (4H605-AA): -1.4
interaction score (4H881-AA): -1.04
interaction score (4H3921-AA): -1.63
interaction score (Q8-AA): -0.702
interaction score (4H3718-AA; mean of both orientations): -0.468
interaction score (4H717-AA): -1.79
interaction score (Q7-AA): -1.97
Binder: DKNAALKAEIAALEAKIAALKAENAALEG [4H3627-AA]

interaction score (4H3112-AA): -0.15
interaction score (4H993-AA): -2.01
interaction score (4H3627-AA; mean of both orientations): -0.579
interaction score (4H2944-AA): -1.62
interaction score (4H3655-AA): -0.297
interaction score (4H566-AA): 0.106
interaction score (4H454-AA): -1.8
interaction score (4H794-AA): -1.89
interaction score (4H429-AA): -1.71
interaction score (4H48-AA): -1.33
interaction score (4H678-AA): -1.67
interaction score (4H335-AA): -1.7
interaction score (4H780-AA): -1.43
interaction score (4H906-AA): -1.83
interaction score (4H3844-AA): 0.407
interaction score (Q3-AA): 1.67
interaction score (4H317-AA): -1.04
interaction score (4H3427-AA): -0.0703
interaction score (4H605-AA): -1.34
interaction score (4H881-AA): -0.992
interaction score (4H3921-AA): -0.731
interaction score (4H2949-AA): -1.55
interaction score (4H3343-AA): -1.17
interaction score (Q8-AA): -1.55
interaction score (4H342-AA): 1.12
interaction score (4H3718-AA; mean of both orientations): -0.87
interaction score (4H717-AA): -1.69
interaction score (Q7-AA): -1.77
interaction score (4H3606-AA): -0.0316
Binder: DKIAALKAKIAALKAKNAALKAKNAALKG [4H2944-AA]

interaction score (4H384-AA): -1.22
interaction score (4H340-AA): -1.57
interaction score (4H3627-AA; mean of both orientations): -0.0527
interaction score (4H982-AA): -1
interaction score (4H2944-AA; mean of both orientations): -1.86
interaction score (4H1594-AA): -1.55
interaction score (4H1845-AA): -1.62
interaction score (4H1629-AA): -1.62
interaction score (4H2620-AA): -1.68
interaction score (4H2907-AA): -1.65
interaction score (4H3588-AA): -0.131
interaction score (4H3162-AA): -1.99
interaction score (4H3378-AA): -1.77
interaction score (4H3697-AA): -2.13
interaction score (4H2198-AA): 1.63
interaction score (4H3056-AA): -1.71
interaction score (4H2553-AA): -1.64
interaction score (Q3-AA): -1.16
interaction score (4H2648-AA): -1.14
interaction score (4H2611-AA): -1.21
interaction score (4H1513-AA): -1.35
interaction score (4H3631-AA): 0.267
interaction score (4H3865-AA): -1.9
interaction score (4H3413-AA): -1.28
interaction score (Q8-AA): -1.06
interaction score (4H697-AA): -1.68
interaction score (4H3718-AA; mean of both orientations): 1.82
interaction score (Q7-AA): -0.188
interaction score (4H3133-AA): -1.2
interaction score (4H1874-AA): -1.02
interaction score (4H32-AA): -0.712
interaction score (4H3606-AA): 0.638
Binder: DENAALEAKNAALKAKIAALKAEIAALEG [4H1513-AA]
